Source: the Human Domainome abundance scans (Beltran et al. 2025)
± gives the uncertainty stated by the source.

Assay: abundance fitness (aPCA) (normalised: wild type 0, dead -1); higher = more abundant; growth selection in yeast, the domain comes from the species named
Conditions: Saccharomyces cerevisiae (strain ATCC 204508 / S288c)

Row | Substance | abundance fitness
1 | E3 ubiquitin-protein ligase RSP5 R355N, P39940 | -0.008 ± 0.069
2 | E3 ubiquitin-protein ligase RSP5 R355P, P39940 | -0.64 ± 0.064
3 | E3 ubiquitin-protein ligase RSP5 R355Q, P39940 | -0.013 ± 0.069
4 | E3 ubiquitin-protein ligase RSP5 R355T, P39940 | -0.257 ± 0.068
5 | E3 ubiquitin-protein ligase RSP5 R355V, P39940 | -0.425 ± 0.045
6 | E3 ubiquitin-protein ligase RSP5 R363C, P39940 | -0.219 ± 0.068
7 | E3 ubiquitin-protein ligase RSP5 R363D, P39940 | -0.725 ± 0.067
8 | E3 ubiquitin-protein ligase RSP5 R363E, P39940 | -0.443 ± 0.057
9 | E3 ubiquitin-protein ligase RSP5 R363F, P39940 | -0.805 ± 0.11
10 | E3 ubiquitin-protein ligase RSP5 R363G, P39940 | -0.276 ± 0.041
11 | E3 ubiquitin-protein ligase RSP5 R363H, P39940 | -0.398 ± 0.066
12 | E3 ubiquitin-protein ligase RSP5 R363I, P39940 | -0.473 ± 0.061
13 | E3 ubiquitin-protein ligase RSP5 R363K, P39940 | -0.41 ± 0.057
14 | E3 ubiquitin-protein ligase RSP5 R363L, P39940 | -0.377 ± 0.047
15 | E3 ubiquitin-protein ligase RSP5 R363M, P39940 | -0.233 ± 0.061
16 | E3 ubiquitin-protein ligase RSP5 R363N, P39940 | -0.357 ± 0.069
17 | E3 ubiquitin-protein ligase RSP5 R363Q, P39940 | -0.367 ± 0.06
18 | E3 ubiquitin-protein ligase RSP5 R363S, P39940 | -0.262 ± 0.049
19 | E3 ubiquitin-protein ligase RSP5 R363T, P39940 | -0.256 ± 0.056
20 | E3 ubiquitin-protein ligase RSP5 R363V, P39940 | -0.437 ± 0.046
21 | E3 ubiquitin-protein ligase RSP5 R363W, P39940 | -0.511 ± 0.06
22 | E3 ubiquitin-protein ligase RSP5 R363Y, P39940 | -0.667 ± 0.08
23 | E3 ubiquitin-protein ligase RSP5 R364A, P39940 | 0.113 ± 0.055
24 | E3 ubiquitin-protein ligase RSP5 R364D, P39940 | 0.126 ± 0.067
25 | E3 ubiquitin-protein ligase RSP5 R364E, P39940 | 0.129 ± 0.052
26 | E3 ubiquitin-protein ligase RSP5 R364H, P39940 | 0.163 ± 0.092

Row | Substance | abundance fitness
27 | E3 ubiquitin-protein ligase RSP5 R364I, P39940 | -0.088 ± 0.11
28 | E3 ubiquitin-protein ligase RSP5 R364L, P39940 | 0.074 ± 0.043
29 | E3 ubiquitin-protein ligase RSP5 R364M, P39940 | 0.051 ± 0.059
30 | E3 ubiquitin-protein ligase RSP5 R364P, P39940 | 0.072 ± 0.052
31 | E3 ubiquitin-protein ligase RSP5 R364Q, P39940 | 0.066 ± 0.054
32 | E3 ubiquitin-protein ligase RSP5 R364S, P39940 | 0.087 ± 0.05
33 | E3 ubiquitin-protein ligase RSP5 R364T, P39940 | 0.077 ± 0.057
34 | E3 ubiquitin-protein ligase RSP5 R364V, P39940 | 0.035 ± 0.049
35 | E3 ubiquitin-protein ligase RSP5 R364W, P39940 | -0.072 ± 0.048
36 | E3 ubiquitin-protein ligase RSP5 R364Y, P39940 | -0.026 ± 0.086
37 | E3 ubiquitin-protein ligase RSP5 S328A, P39940 | -0.172 ± 0.046
38 | E3 ubiquitin-protein ligase RSP5 S328C, P39940 | 0.054 ± 0.079
39 | E3 ubiquitin-protein ligase RSP5 S328D, P39940 | 0.126 ± 0.074
40 | E3 ubiquitin-protein ligase RSP5 S328G, P39940 | -0.113 ± 0.042
41 | E3 ubiquitin-protein ligase RSP5 S328H, P39940 | -0.014 ± 0.076
42 | E3 ubiquitin-protein ligase RSP5 S328K, P39940 | 0.083 ± 0.055
43 | E3 ubiquitin-protein ligase RSP5 S328M, P39940 | 0.099 ± 0.067
44 | E3 ubiquitin-protein ligase RSP5 S328N, P39940 | 0.1 ± 0.071
45 | E3 ubiquitin-protein ligase RSP5 S328P, P39940 | -0.025 ± 0.064
46 | E3 ubiquitin-protein ligase RSP5 S328R, P39940 | -0.095 ± 0.044
47 | E3 ubiquitin-protein ligase RSP5 S328T, P39940 | -0.018 ± 0.12
48 | E3 ubiquitin-protein ligase RSP5 S328V, P39940 | -0.07 ± 0.055
49 | E3 ubiquitin-protein ligase RSP5 S328Y, P39940 | 0.036 ± 0.098
50 | E3 ubiquitin-protein ligase RSP5 S335A, P39940 | -0.063 ± 0.044
51 | E3 ubiquitin-protein ligase RSP5 S335C, P39940 | -0.147 ± 0.07
52 | E3 ubiquitin-protein ligase RSP5 S335D, P39940 | 0.205 ± 0.14

Row | Substance | abundance fitness
53 | E3 ubiquitin-protein ligase RSP5 S335E, P39940 | -0.031 ± 0.053
54 | E3 ubiquitin-protein ligase RSP5 S335F, P39940 | -0.205 ± 0.11
55 | E3 ubiquitin-protein ligase RSP5 S335G, P39940 | -0.108 ± 0.052
56 | E3 ubiquitin-protein ligase RSP5 S335H, P39940 | -0.079 ± 0.066
57 | E3 ubiquitin-protein ligase RSP5 S335K, P39940 | -0.049 ± 0.045
58 | E3 ubiquitin-protein ligase RSP5 S335L, P39940 | -0.202 ± 0.046
59 | E3 ubiquitin-protein ligase RSP5 S335M, P39940 | -0.086 ± 0.063
60 | E3 ubiquitin-protein ligase RSP5 S335N, P39940 | -0.015 ± 0.084
61 | E3 ubiquitin-protein ligase RSP5 S335P, P39940 | 0.047 ± 0.38
62 | E3 ubiquitin-protein ligase RSP5 S335Q, P39940 | -0.094 ± 0.051
63 | E3 ubiquitin-protein ligase RSP5 S335R, P39940 | -0.129 ± 0.051
64 | E3 ubiquitin-protein ligase RSP5 S335T, P39940 | -0.247 ± 0.087
65 | E3 ubiquitin-protein ligase RSP5 S335V, P39940 | -0.141 ± 0.051
66 | E3 ubiquitin-protein ligase RSP5 S335W, P39940 | -0.278 ± 0.064
67 | E3 ubiquitin-protein ligase RSP5 S335Y, P39940 | -0.33 ± 0.087
68 | E3 ubiquitin-protein ligase RSP5 T326A, P39940 | -0.023 ± 0.05
69 | E3 ubiquitin-protein ligase RSP5 T326C, P39940 | -0.033 ± 0.07
70 | E3 ubiquitin-protein ligase RSP5 T326D, P39940 | 0.094 ± 0.068
71 | E3 ubiquitin-protein ligase RSP5 T326E, P39940 | 0.055 ± 0.052
72 | E3 ubiquitin-protein ligase RSP5 T326F, P39940 | -0.02 ± 0.09
73 | E3 ubiquitin-protein ligase RSP5 T326G, P39940 | -0.18 ± 0.048
74 | E3 ubiquitin-protein ligase RSP5 T326H, P39940 | -0.051 ± 0.078
75 | E3 ubiquitin-protein ligase RSP5 T326I, P39940 | -0.266 ± 0.2
76 | E3 ubiquitin-protein ligase RSP5 T326K, P39940 | 0.068 ± 0.051
77 | E3 ubiquitin-protein ligase RSP5 T326L, P39940 | -0.023 ± 0.048
78 | E3 ubiquitin-protein ligase RSP5 T326M, P39940 | 0.008 ± 0.07

Row | Substance | abundance fitness
79 | E3 ubiquitin-protein ligase RSP5 T326N, P39940 | 0.105 ± 0.087
80 | E3 ubiquitin-protein ligase RSP5 T326P, P39940 | -0.652 ± 0.079
81 | E3 ubiquitin-protein ligase RSP5 T326Q, P39940 | -0.071 ± 0.057
82 | E3 ubiquitin-protein ligase RSP5 T326R, P39940 | -0.068 ± 0.042
83 | E3 ubiquitin-protein ligase RSP5 T326S, P39940 | 0.014 ± 0.054
84 | E3 ubiquitin-protein ligase RSP5 T326V, P39940 | -0.008 ± 0.051
85 | E3 ubiquitin-protein ligase RSP5 T326W, P39940 | -0.207 ± 0.08
86 | E3 ubiquitin-protein ligase RSP5 T326Y, P39940 | -0.061 ± 0.072
87 | E3 ubiquitin-protein ligase RSP5 T327A, P39940 | -0.049 ± 0.046
88 | E3 ubiquitin-protein ligase RSP5 T327C, P39940 | -0.001 ± 0.06
89 | E3 ubiquitin-protein ligase RSP5 T327D, P39940 | 0.121 ± 0.07
90 | E3 ubiquitin-protein ligase RSP5 T327E, P39940 | 0.105 ± 0.056
91 | E3 ubiquitin-protein ligase RSP5 T327G, P39940 | -0.037 ± 0.046
92 | E3 ubiquitin-protein ligase RSP5 T327H, P39940 | 0.019 ± 0.16
93 | E3 ubiquitin-protein ligase RSP5 T327L, P39940 | -0.049 ± 0.055
94 | E3 ubiquitin-protein ligase RSP5 T327M, P39940 | 0.103 ± 0.077
95 | E3 ubiquitin-protein ligase RSP5 T327N, P39940 | 0.12 ± 0.12
96 | E3 ubiquitin-protein ligase RSP5 T327P, P39940 | -0.258 ± 0.068
97 | E3 ubiquitin-protein ligase RSP5 T327Q, P39940 | -0.112 ± 0.057
98 | E3 ubiquitin-protein ligase RSP5 T327R, P39940 | -0.067 ± 0.044
99 | E3 ubiquitin-protein ligase RSP5 T327S, P39940 | 0.038 ± 0.05
100 | E3 ubiquitin-protein ligase RSP5 T327W, P39940 | -0.17 ± 0.053
101 | E3 ubiquitin-protein ligase RSP5 T327Y, P39940 | -0.639 ± 0.27
102 | E3 ubiquitin-protein ligase RSP5 T342D, P39940 | 0.173 ± 0.076
103 | E3 ubiquitin-protein ligase RSP5 T342E, P39940 | -0.377 ± 0.05
